These results are taken from patent publication US20250368686A1, “PEPTIDE DRUGS FOR S[…] D[…] BLOCKING HOMO- AND HETERO-DIMERIZATION OF OPIOID RECEPTORS” (OKINAWA INSTITUTE OF SCIENCE AND TECHNOLOGY SCHOOL …, priority 2022, published 2025).

Test [1] deals with µ-type opioid receptor (MOR), rat, wild type, fluorescently tagged, expressed in the PM of CHO-K1 cells (Example 1) (rat) (UniProt P33535). In words: distribution of colocalisation durations with WT-MOR; single-molecule imaging.
Test [2] deals with SNAPf-DOR: rat DOR with the SNAPf tag protein at its N-terminus, expressed in the PM of CHO-K1 cells (Example 2) (rat) (UniProt P33533). In words: single-molecule imaging, PCCF fit; copies/um2.
Test [3] shares this target. In words: single-molecule imaging, homodimer 2D-KD; copies/um2; + agonist.
For test [4] the target is unchanged. The test can be described thus: single-molecule imaging, homodimer 2D-KD; copies/um2; - agonist.
Test [5] addresses δ-type opioid receptor (DOR), rat, wild type, fluorescently tagged, expressed in the PM of CHO-K1 cells (Example 1) (rat) (UniProt P33533). In words: distribution of colocalisation durations with WT-DOR; single-molecule imaging.

As for “DORΔ22-42 (DOR N-terminal deletion mutant) (from UniProt P33533 1-21; P33533 43-372) (receptor)”, the dimer lifetime (τ2) in test [1] was determined as 88 ms.
For “SNAPf-DOR: rat DOR with the SNAPf tag protein at its N-terminus, expressed in the PM of CHO-K1 cells (Example 2) (from UniProt P33533 1-372)”, the Kd is given as 7.91 ? in test [2], 3.58 ? in test [3] and 7.91 ? in test [4].
With “MORΔ32-61 (MOR N-terminal deletion mutant) (from UniProt P33535 1-31; P33535 62-398) (receptor)”, the dimer lifetime (τ2) in test [5] turned out to be 91 ms.
